Read-outs that look alike come from different tables or passages of the source.
How the values were obtained:
[1] = biological target: tissue plasminogen activator (t-PA) (UniProt P00750); assay: ratio of the rate constants toward t-PA and toward u-PA
[2] = biological target: tissue plasminogen activator (t-PA) (UniProt P00750); assay: inhibition kinetics from residual enzyme activity (chromogenic assay), pseudo-first or second order conditions
[3] = biological target: urokinase-type plasminogen activator (u-PA) (UniProt P00749); assay: as above
[4] = biological target: urokinase-type plasminogen activator (u-PA) (UniProt P00749); assay: ratio of second order rate constants for inhibition
[5] = biological target: tissue plasminogen activator (t-PA) (UniProt P00750); assay: ratio of selectivities from second order rate constants for inhibition
[6] = biological target: urokinase-type plasminogen activator (u-PA) (UniProt P00749); assay: ratio of the rate constants toward u-PA and toward t-PA
[7] = biological target: urokinase-type plasminogen activator (u-PA) (UniProt P00749); assay: ratio of selectivities from second order rate constants for inhibition
[8] = biological target: tissue plasminogen activator (t-PA) (UniProt P00750); assay: inhibition kinetics from residual enzyme activity (chromogenic assay), pseudo-first or second order conditions; remark: listed apart in the source
[9] = biological target: urokinase-type plasminogen activator (u-PA) (UniProt P00749); assay: as above; remark: listed apart in the source
[10] = biological target: urokinase-type plasminogen activator (u-PA) (UniProt P00749); assay: ratio of the second order rate constants for inhibition

tissue plasminogen activator (t-PA), sequence (P00750 36-562 limits assumed): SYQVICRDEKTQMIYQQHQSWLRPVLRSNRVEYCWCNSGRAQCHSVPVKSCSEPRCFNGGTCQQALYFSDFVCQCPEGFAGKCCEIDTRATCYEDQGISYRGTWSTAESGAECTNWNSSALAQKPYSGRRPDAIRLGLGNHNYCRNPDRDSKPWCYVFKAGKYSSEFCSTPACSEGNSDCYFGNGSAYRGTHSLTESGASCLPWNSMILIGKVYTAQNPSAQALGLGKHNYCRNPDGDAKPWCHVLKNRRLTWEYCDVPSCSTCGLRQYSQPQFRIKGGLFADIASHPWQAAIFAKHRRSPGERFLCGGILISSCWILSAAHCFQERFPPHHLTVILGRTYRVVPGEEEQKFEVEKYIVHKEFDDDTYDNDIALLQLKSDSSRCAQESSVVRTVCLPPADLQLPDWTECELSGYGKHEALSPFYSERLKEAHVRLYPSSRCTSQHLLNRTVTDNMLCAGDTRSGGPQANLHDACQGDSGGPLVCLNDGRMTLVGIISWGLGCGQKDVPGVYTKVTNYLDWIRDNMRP

| Substance | t-PA/u-PA Selectivity [1] | second order rate constant for inhibition [2] [M⁻¹ s⁻¹] | second order rate constant for inhibition [3] [M⁻¹ s⁻¹] | fold reduction of activity against wild type PAI-1 [4] [fold] | fold reversal in specificity toward t-PA against wild type PAI-1 [5] [fold] | fold gain of t-PA selectivity against the P3 arginine variant of PAI-1 [5] [fold] | fold gain of t-PA/u-PA selectivity against wild-type PAI-1 [5] [fold] | t-PA/u-PA Selectivity (as headed; the value is the u-PA/t-PA ratio) [6] | fold gain of u-PA/t-PA selectivity against wild type PAI-1 [7] [fold] | second order rate constant for inhibition [8] [M⁻¹ s⁻¹] | second order rate constant for inhibition [9] [M⁻¹ s⁻¹] | fold specificity toward u-PA over t-PA [10] [fold] |
| --- | --- | --- | --- | --- | --- | --- | --- | --- | --- | --- | --- | --- |
| PAI-1/P4Q (from UniProt P05121 24-402) | 0.08 | 1.6e+06 | 1.9e+07 |  |  |  |  |  |  |  |  |  |
| PAI-1/P3R (from UniProt P05121 24-402) | 14 | 1.4e+06 | 100000 | 190 | 170 |  |  |  |  |  |  |  |
| PAI-1/P4Q,P3R (from UniProt P05121 24-402) | 48 | 1.4e+06 | 29000 |  |  | 3.5 | 600 |  |  |  |  |  |
| PAI-1/UK1 (from UniProt P05121 24-402) |  |  |  |  |  |  |  | 69 | 7 | 90000 | 6.2e+06 |  |
| Wild type PAI-1 (recombinant human plasminogen activator inhibitor type 1) (from UniProt P05121 24-402) | 0.08 | 1.6e+06 |  |  |  |  |  | 11 |  | 1.8e+06 | 1.9e+07 | 11.9 |

Source: EP0959894B1
